Measurements taken from US20130034559A1.

Experiments:
[1] = molecular target: human B7-H1 expressed on cells (human) (UniProt Q9NZQ7); assay: FACS, 1 µg/ml isotype control, anti-CD3-activated human T cells
[2] = molecular target: mouse B7-H1 on J558 cells (mouse) (UniProt Q9EP73); assay: FACS, 5 µg/ml isotype control, J558 cells expressing mouse B7-H1
[3] = molecular target: human B7-DC on 293T cells (human) (UniProt Q9BQ51); assay: FACS, 5 µg/ml isotype control, 293T cells transfected with human B7-DC
[4] = molecular target: human B7-H1 expressed on cells (human) (UniProt Q9NZQ7); assay: FACS, 5 µg/ml isotype control, 293T cells transfected with human B7-H1
[5] = molecular target: cynomolgus monkey B7-H1 expressed on cells (cynomolgus monkey) (UniProt G7PSE7); assay: FACS, 1 µg/ml isotype control, anti-CD3-activated cynomolgus monkey T cells
cynomolgus monkey B7-H1 expressed on cells (cynomolgus monkey), sequence (G7PSE7 entry or part of it): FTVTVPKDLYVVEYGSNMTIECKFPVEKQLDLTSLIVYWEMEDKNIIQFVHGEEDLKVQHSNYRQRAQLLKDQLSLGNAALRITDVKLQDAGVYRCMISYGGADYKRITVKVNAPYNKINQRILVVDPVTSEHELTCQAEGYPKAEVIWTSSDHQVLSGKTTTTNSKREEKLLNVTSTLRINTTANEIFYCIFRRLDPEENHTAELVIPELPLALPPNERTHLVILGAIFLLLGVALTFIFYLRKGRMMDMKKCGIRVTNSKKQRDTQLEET

human B7-H1 expressed on cells (human), sequence (Q9NZQ7 19-290): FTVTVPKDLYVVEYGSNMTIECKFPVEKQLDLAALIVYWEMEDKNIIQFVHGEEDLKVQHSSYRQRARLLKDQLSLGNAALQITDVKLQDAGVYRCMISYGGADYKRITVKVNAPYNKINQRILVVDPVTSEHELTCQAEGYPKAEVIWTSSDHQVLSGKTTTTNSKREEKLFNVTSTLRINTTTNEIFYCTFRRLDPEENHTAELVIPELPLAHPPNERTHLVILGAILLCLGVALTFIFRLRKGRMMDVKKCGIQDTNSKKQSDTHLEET
human B7-DC on 293T cells (human), sequence (Q9BQ51 20-273): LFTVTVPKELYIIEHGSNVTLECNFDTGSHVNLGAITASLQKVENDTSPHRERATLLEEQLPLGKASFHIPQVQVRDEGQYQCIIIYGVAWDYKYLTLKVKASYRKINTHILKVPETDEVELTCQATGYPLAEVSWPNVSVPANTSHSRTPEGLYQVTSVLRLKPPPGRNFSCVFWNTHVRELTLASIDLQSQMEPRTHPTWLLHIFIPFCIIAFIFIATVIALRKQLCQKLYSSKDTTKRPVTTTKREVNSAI
mouse B7-H1 on J558 cells (mouse), sequence (Q9EP73 19-290): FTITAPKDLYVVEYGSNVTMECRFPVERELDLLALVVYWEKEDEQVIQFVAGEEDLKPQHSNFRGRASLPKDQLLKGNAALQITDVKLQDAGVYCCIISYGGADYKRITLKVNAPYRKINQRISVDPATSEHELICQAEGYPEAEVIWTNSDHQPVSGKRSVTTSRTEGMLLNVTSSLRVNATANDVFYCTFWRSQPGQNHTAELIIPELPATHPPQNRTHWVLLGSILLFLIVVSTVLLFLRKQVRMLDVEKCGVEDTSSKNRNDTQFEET

Row | geo mean [1] | geo mean [2] | geo mean [3] | geo mean [4] | geo mean [5] | Substance
1 | 10 | 3.1 | 9.5 | 7.6 |  | irrelevant human IgG2 antibody
2 | 10 | 3.2 | 8.8 | 10.7 | 17.6 | irrelevant human IgG4 antibody
